Reference: patent US20100041032A1

Biological target: Nodal, endogenous in mouse F9 Cripto-/- cells (mouse) (UniProt P43021)
Assay: cell-based or functional assay

Sequence of UniProt P43021 (P43021 245-354 limits assumed): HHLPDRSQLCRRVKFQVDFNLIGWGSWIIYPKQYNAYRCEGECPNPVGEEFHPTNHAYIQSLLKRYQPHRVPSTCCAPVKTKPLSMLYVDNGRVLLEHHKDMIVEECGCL

## human Cripto-1 (protein encoded by TDGF1) (from UniProt P13385 31-150)
  luciferase activity, FAST transcription factor dependent (n2)7-luciferase reporter assay in F9 Cripto-/- cells, fold increase compared with control: 4 to 6 fold
